Results published in PMC2603141 (Virology, 2008).

Target: the molecule itself
Assay: reducing and non-reducing SDS-PAGE

B1: PIV 5 HN stalk region, HN(stalk) (domain or fragment)
chain: SPSSGLGSITDLLNNILSVANQIIYNSAVALPLQLDTLESTLLTAIKSLQTSDKLEQNCSWSAAL
modifications: also: inter-chain disulfide, covalent dimer
- stoichiometry N: 2
